Legend:
[1] = biological target: T1, AIM2 inflammasome (Mus musculus, UniProt Q9EPB4); assay: Inflammasome activation in LPS-primed BMDMs of bat ASC2/rtTA mice transfected with poly(dA:dT); assay type: cell-based; details: Dox, LPS 3 h, poly(dA:dT) transfection 4 h, FIG. 5D, 5E
T1 construct: endogenous in cells; host or cells: BMDMs of wild-type and bat ASC2/rtTA mice
T1 sequence (Q9EPB4 1-193): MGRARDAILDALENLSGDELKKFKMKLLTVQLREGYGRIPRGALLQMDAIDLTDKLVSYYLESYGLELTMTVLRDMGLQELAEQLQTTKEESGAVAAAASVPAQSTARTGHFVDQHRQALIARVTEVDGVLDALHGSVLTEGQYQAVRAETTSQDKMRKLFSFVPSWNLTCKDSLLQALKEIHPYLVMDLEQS
From the text: (§1) Inflammasome activation assays.

[2] = tested on: bat NLRP3 inflammasome; assay: ASC speck formation in HEK293T cells reconstituted with bat NLRP3-mCitrine and bat ASC-mPlum (ImageStream); assay type: cell-based, Pteropus alecto; details: bat NLRP3-mCitrine, bat ASC-mPlum, ASC2-LSSmOrange overexpressed, FIG. 3B
From the text: as §1
(§2) ImageStream imaging flow cytometry. […] Nuclei were stained with DAPI.

[3] = tested on: H1N1 IAV, strain A/NWS/33; assay type: in vivo, mouse
[4] = tested on: bat ASC; assay: Co-immunoprecipitation of ASC2-His with bat ASC-Flag from HEK293T cells; assay type: binding; details: 0.25 μg bat or hupa4 ASC2 vs 3 μg human ASC2 transfected, FIG. 26B
Protocol: Co-immunoprecipitation. HEK293T cells were transfected in 6-well plate with plasmids encoding His-tagged empty vector (His alone), bat ASC2, human ASC2, and Hupa4 ASC2 along with Flag-tagged human or bat ASC. 3 μg human ASC2, in contrast to 0.25 μg control, bat or hupa4 ASC2, were transfected to normalize the expression. At 48 h post-transfection, cells were lysed in IP lysis buffer (Pierce) according to manufacturer's protocol and centrifuged at 500 g for 10 minutes at 4° C. The supernatants were subjected to immunoprecipitation by incubation for 16 hours at 4° C. with anti-Flag (Sigma) incubated magnetic beads, followed by washing three times with TBS containing 0.05% Tween 20 and once with purified water. Bound proteins were separated by 15% SDS-PAGE, followed by immunoblotting analysis with the indicated antibodies.

[5] = biological target: T2, NLRP3 inflammasome (Mus musculus, UniProt Q9EPB4); assay: Inflammasome activation in LPS-primed BMDMs of bat ASC2/rtTA mice stimulated with MSU crystals; assay type: cell-based; parameters: endogenous in cells; host or cells: BMDMs of C57BL/6 wild-type and bat ASC2/rtTA mice; details: Dox, LPS 3 h, MSU 16 h, FIG. 6D, 6E
T2 sequence (Q9EPB4 1-193): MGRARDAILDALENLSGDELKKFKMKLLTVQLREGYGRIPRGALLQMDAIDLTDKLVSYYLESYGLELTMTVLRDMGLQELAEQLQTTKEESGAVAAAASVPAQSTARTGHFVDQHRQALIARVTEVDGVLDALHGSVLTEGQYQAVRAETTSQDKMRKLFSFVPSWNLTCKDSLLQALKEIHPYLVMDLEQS
From the text: as §1

[6] = biological target: T2, NLRP3 inflammasome; assay: Inflammasome activation in LPS-primed BMDMs of WT or bat ASC2/rtTA mice stimulated with nigericin; details: Dox-induced bat ASC2, LPS 3 h
[7] = biological target: T3, NLRP3 inflammasome (Homo sapiens, UniProt Q9ULZ3); assay: ASC speck formation by flow cytometry in reconstituted HEK293T cells (human NLRP3-mCitrine, human ASC-mPlum) with ASC2 of various species; assay type: cell-based; parameters: expressed in transfected cells; host or cells: HEK293T; details: 50 ng ASC2-LSSmOrange, 48 h, FIG. 27A
T3 sequence (Q9ULZ3 whole entry): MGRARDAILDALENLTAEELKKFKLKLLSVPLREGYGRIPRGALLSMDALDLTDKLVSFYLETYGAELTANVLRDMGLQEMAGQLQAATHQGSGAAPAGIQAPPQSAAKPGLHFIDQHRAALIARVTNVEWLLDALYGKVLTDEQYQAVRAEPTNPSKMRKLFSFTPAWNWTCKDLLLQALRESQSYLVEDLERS
Protocol: Plasmids. ASC2 sequences of 16 non-primate non-bat species were gene synthesized (IDT) and cloned into pQCXIH-LSSmOrange vector (Clontech). All constructs were prepared with endotoxin-free plasmid kits (Omega Bio-tek).
Transfection. HEK293T cells were seeded at 3×10^5/mL in 96-well plate overnight. […] 48 h post-transfection, cells were harvested for flow cytometry analysis.

[8] = tested on: IAV; assay type: cell-based, mouse
[9] = biological target: T3, NLRP3 inflammasome; assay: ASC speck and filament formation in HEK293T cells reconstituted with human NLRP3-mCitrine and human ASC-mPlum (ImageStream, confocal); assay type: cell-based; parameters: expressed in transfected cells; host or cells: HEK293T
Protocol: as §1, §2
Confocal imaging. […] At 48 h post-transfection, cells were fixed with 10% formalin for 15 min at room temperature. DAPI (1:2000 dilution) was used for nuclear staining. All samples were then mounted and examined using the Leica TCS SP8 confocal microscope.

[10] = tested on: Pteropine orthoreovirus 3 (PRV3M); assay type: cell-based, mouse; details: bat ASC2/rtTA vs WT BMDMs

B1: bat ASC2: ASC2 (PYRIN-only protein) of the bat Pteropus alecto, SEQ ID NO:11; expressed from vectors or as Dox-inducible transgene (protein)
chain: MGKKRDAILEALENLTADELKKFKLKLGAAPLRQGFRNIPRGALGPLDAVDLTDKLVAFYCEDYGAELTAVVLRDIGMQEEAERLQGVA
[1]
  Activation of AIM2 inflammasome (LDH release, IL-1β): suppressed the activation
[2]
  ASC speck formation (bat NLRP3 inflammasome activation): inhibited bat NLRP3 inflammasome
[3]; 3 dpi, bat ASC2/rtTA vs WT mice, FIG. 10B
  Level of IL-1β in lung tissue extracts: significantly reduced
[3]; 3 dpi, bat ASC2/rtTA vs WT mice, FIG. 10C
  Lung viral titres: no significant different
[3]; bat ASC2/rtTA mice, IAV 0.5×10^5 pfu intranasal one day after Dox, 14 days post-infection, 100% of WT mice succumbed
  Mortality: 50%
[4]
  Interaction with bat ASC (co-IP): interact with bat ASC more strongly than human ASC2
[5]
  Activation of NLRP3 inflammasome (LDH release, IL-1β): suppressed the activation
[6]; nigericin 30 min, FIG. 6B, 6C
  ASC speck formation: reduction of ASC speck formation
[6]; nigericin 1 h, FIG. 5B
  Pyroptotic cell death (LDH release): reduction
[6]; nigericin 1 h, FIG. 5C
  IL-1β secretion: reduction
[7]
  Effect on inflammasome activation (ASC speck formation): inhibitory effect
[8]
  In vitro IL-1β response to IAV infection: significantly lower
  Viral titres in supernatants: no obvious difference
[9]; HEK293T, ImageStream and confocal
  ASC2 filament formation / distribution: formed fine and long filaments
[9]; HEK293T, imaging, FIG. 3A
  Co-localization with human ASC: co-localization between bat ASC2 and human ASC
[9]; HEK293T, human NLRP3-mCitrine, human ASC-mPlum, 50 ng ASC2-LSSmOrange, 48 h post-transfection
  ASC speck formation (human NLRP3 inflammasome activation): suppressed the activation of human NLRP3
[9]; expression normalized by gating equal signal intensity, FIG. 3C
  Potency in inhibiting human NLRP3 inflammasome compared with human ASC2: significantly more potent
[10]; LPS 3 h, PRV3M MOI=5, 24 h, Dox, FIG. 10G
  IL-1β secretion triggered by PRV3M: substantially inhibited
[10]; MOI=5, 24 h, FIG. 10E
  Viral load for PRV3M: without affecting the viral load

— patent publication US20240398896A1, “INFLAMMASOME INHIBITION” (National University of Singapore, priority 2021, published 2024)
